B1: Uncharacterized protein TRE1 (Saccharomyces cerevisiae), Q08919 (parent)
chain: MVNTRGYTTLPNVEEPANNSQDELNSQDFEQAIGMPSEPPVYVEEMGMEEPQAPEAFSEKVQRFRMCFENNVVIPVKKNVVDPLAQMISLASEKFDLFLSKIGNVMVMRRIFYIMMMSIIAALIIASDRLPNGKARGSNGSFSDHDLLLQYARKSIDLSKIERDLEYISSMPHMSGTSGDAAIRHYIKESFDKNGIRLAGEEEFMAYSNYPGNVSLRVYSKDDTEGFDIPLNEENFNPMSHNGQLNNIPVIYANKASLDDMASMQDQGLLNGDFILLVHYGDYVFQQMLTAQEYGAKAIIFISEPYQDNKDVIQMKSVALPQYGTGDALTPEWEGSIRDPIDATEAKCLPKIPSIPISANQGDKILAILSDTGVKFSNNLFSGSLNDCRLDLLVQTAIRERHPVHDIVGKIEGSEQAGRAIVIAAPRNSASYGTMYPSFGTVVLLSLIQLYQEMVYKFDWKPLRNIYFISFGGSEFNEAGATELMEKRTEALKSEIYTIIDVGQIGIWDDSNNLEIQCHPLLVDLFQKNMTSRKFNVKVDNVHQFGDWTPYLAQGIPVAIISSPGVMNREHPIYTVEDKFDFIKDKLRDKKKGEVLSEIMLYLVEKSLELIDDPFIPFSISNYVDFLSTTLKDLQKECPDTVNFDEVFLGTTLWENTKLQFEKWKSEWTELMYGAGTYIEPTIIAINRWSWNYLLSLIGVTQCLEEGLMDRTFYKNVIFGPKLWVDKGDPLRSWTFPEIRDTIAIKDWSSVQVQANTLGTILQNTARYFLENKNLHGINTNEF

Variants of: B1
Settings: with rsp5_yeast RSP5, P39940
Chain of rsp5_yeast RSP5, P39940 (P39940 whole entry): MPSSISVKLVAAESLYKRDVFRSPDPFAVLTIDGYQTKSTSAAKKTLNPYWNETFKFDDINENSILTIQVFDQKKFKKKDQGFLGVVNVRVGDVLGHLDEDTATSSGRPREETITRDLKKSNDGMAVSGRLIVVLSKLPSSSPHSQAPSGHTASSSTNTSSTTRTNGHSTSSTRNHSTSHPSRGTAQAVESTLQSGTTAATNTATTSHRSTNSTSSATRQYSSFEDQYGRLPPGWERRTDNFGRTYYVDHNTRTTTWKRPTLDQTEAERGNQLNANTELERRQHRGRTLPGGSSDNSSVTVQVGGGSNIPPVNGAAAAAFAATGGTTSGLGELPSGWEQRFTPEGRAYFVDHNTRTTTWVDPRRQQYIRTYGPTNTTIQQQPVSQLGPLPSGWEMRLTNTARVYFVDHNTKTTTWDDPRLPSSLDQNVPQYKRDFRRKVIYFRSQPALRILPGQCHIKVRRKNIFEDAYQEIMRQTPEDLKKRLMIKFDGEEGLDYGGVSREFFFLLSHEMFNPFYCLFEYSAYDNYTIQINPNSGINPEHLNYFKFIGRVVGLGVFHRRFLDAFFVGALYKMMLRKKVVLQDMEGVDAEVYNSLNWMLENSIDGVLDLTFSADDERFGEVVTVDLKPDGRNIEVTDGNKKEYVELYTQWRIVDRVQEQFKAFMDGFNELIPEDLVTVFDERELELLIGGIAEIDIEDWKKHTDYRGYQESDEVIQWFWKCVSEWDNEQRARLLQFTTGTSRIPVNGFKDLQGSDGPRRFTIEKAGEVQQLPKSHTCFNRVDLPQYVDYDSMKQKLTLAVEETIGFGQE

effect of a mutation on the interaction	Variant
disrupting interaction	Y42G
disrupting interaction	V41A

Variants of: B1
Settings: with rsp5_yeast RSP5, P39940
Remark: another data set of the same source

effect of a mutation on the interaction	Variant
decreasing interaction	Y42G
